The record followed here is patent US20090298769A1 (CLEVELAND CLINIC FOUNDATION, published 2009).

The experiment concerns the target T1, VEGFR-2 of human endothelial cells (HUVEC) (human, UniProt P35968 20-1356).
T1 construct: whole, on cells; Endogenous, detected in cell lysates or by staining; also called VEGF receptor-2
Briefly: co-immunoprecipitation (anti-VEGFR-2 IP, anti-integrin β5 blot), HUVEC with or without VEGF.

T1 sequence (P35968 20-1356): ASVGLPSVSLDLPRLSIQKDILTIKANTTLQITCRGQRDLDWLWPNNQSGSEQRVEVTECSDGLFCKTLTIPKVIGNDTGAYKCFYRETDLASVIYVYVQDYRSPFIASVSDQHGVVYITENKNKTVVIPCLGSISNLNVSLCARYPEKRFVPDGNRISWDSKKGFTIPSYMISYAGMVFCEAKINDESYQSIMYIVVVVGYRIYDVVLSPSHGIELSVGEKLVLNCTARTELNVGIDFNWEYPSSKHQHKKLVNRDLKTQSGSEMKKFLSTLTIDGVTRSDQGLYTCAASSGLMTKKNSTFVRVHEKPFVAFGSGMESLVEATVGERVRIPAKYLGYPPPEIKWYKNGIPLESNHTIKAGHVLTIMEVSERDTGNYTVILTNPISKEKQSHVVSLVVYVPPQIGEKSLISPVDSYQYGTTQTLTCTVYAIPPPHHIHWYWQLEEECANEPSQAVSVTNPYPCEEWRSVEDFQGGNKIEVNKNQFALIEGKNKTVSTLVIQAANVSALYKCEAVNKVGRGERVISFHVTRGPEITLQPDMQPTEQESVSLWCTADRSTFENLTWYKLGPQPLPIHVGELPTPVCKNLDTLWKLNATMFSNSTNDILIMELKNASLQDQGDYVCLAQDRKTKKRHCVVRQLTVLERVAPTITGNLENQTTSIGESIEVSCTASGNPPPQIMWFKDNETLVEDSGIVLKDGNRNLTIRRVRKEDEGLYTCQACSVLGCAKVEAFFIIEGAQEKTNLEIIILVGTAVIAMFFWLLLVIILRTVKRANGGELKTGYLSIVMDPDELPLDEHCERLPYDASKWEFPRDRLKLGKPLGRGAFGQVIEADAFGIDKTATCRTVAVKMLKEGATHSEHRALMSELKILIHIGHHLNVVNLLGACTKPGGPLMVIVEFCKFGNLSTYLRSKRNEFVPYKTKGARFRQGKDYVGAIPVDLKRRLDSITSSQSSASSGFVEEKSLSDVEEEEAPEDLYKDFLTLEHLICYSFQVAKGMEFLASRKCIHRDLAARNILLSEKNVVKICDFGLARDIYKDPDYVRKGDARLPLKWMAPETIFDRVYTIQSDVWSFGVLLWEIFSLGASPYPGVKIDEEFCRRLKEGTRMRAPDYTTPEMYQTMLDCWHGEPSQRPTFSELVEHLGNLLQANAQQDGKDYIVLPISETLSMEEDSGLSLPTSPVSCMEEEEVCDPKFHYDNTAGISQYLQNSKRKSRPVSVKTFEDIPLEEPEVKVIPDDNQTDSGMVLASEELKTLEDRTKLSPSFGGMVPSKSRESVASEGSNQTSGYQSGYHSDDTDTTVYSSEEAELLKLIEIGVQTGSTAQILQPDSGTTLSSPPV

B1: β5 integrin of HUVEC (receptor, human, UniProt P18084 24-799, looked up)
chain: GLNICTSGSATSCEECLLIHPKCAWCSKEDFGSPRSITSRCDLRANLVKNGCGGEIESPASSFHVLRSLPLSSKGSGSAGWDVIQMTPQEIAVNLRPGDKTTFQLQVRQVEDYPVDLYYLMDLSLSMKDDLDNIRSLGTKLAEEMRKLTSNFRLGFGSFVDKDISPFSYTAPRYQTNPCIGYKLFPNCVPSFGFRHLLPLTDRVDSFNEEVRKQRVSRNRDAPEGGFDAVLQAAVCKEKIGWRKDALHLLVFTTDDVPHIALDGKLGGLVQPHDGQCHLNEANEYTASNQMDYPSLALLGEKLAENNINLIFAVTKNHYMLYKNFTALIPGTTVEILDGDSKNIIQLIINAYNSIRSKVELSVWDQPEDLNLFFTATCQDGVSYPGQRKCEGLKIGDTASFEVSLEARSCPSRHTEHVFALRPVGFRDSLEVGVTYNCTCGCSVGLEPNSARCNGSGTYVCGLCECSPGYLGTRCECQDGENQSVYQNLCREAEGKPLCSGRGDCSCNQCSCFESEFGKIYGPFCECDNFSCARNKGVLCSGHGECHCGECKCHAGYIGDNCNCSTDISTCRGRDGQICSERGHCLCGQCQCTEPGAFGEMCEKCPTCPDACSTKRDCVECLLLHSGKPDNQTCHSLCRDEVITWVDTIVKDDQEAVLCFYKTAKDCVMMFTYVELPSGKSNLTVLREPECGNTPNAMTILLAVVGSILLVGLALLAIWKLLVTIHDRREFAKFQSERSRARYEMASNPLYRKPISTHTVDFTFNKFNKSYNGTVD
notes: whole, on cells; also called integrin β5
As for B1, the binding result is reported as “no binding”.
